Laboratory results reported in the supplement of paper PMC10567573.

B1: PBXIP1 (parent)
chain: EKQKQPRWREGTKDSHDPLPSWAE
B2: MLH1 (parent)
chain: YNIATRRKALKNPSEEYGKILEVV

Variants of: B1
Experiment: protein stability index of a GFP-peptide fusion (GPS, HEK-293T) (PSI 1-6); higher = more stable
Details: c terminus: a fixed tail appended
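Note: lentivirally expressed fusions sorted by FACS into six bins by GFP to DsRed ratio, PSI derived from sequencing read proportions per bin multiplied by bin number.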

Point of comparison: K4A, protein stability index 1.72. Against it:
- A23S — higher, 2.01
- A23E — higher, 2.39
- A23I — higher, 2.61
- K13A — higher, 2.15
- K13V — lower, 1.52
- H16C — higher, 3.68
- W22Y — higher, 4.85
- W22A — higher, 5.8
- P6D — higher, 2.48
- P6S — higher, 2.4
- T12R — higher, 2.71
- T12A — higher, 2
- D14S — higher, 3.28
- E1M — lower, 1.7
- E1G — lower, 1.66
- E1R — higher, 2.19
- Q5A — higher, 3.71
- Q5P — lower, 1.68
- Q5K — higher, 2.18
- K4W — lower, 1
- K4G — higher, 1.89
- L19C — lower, 1.51
- R9I — higher, 1.89
- K2H — lower, 1.66
- E24F — higher, 3.11
- E24K — higher, 2.89
- S21G — higher, 2.93
- W8R — higher, 2.54
- W8G — higher, 2.04
- W8F — higher, 1.88
- W8Y — higher, 1.94
- P20R — higher, 2
- Q3P — lower, 1.63
- Q3T — higher, 1.89
- D17E — lower, 1.39
- D17L — lower, 1.58
- G11E — lower, 1.15
- G11P — higher, 1.77

Variants of: B2
Experiment: as above
Details: c terminus: a fixed tail appended

Point of comparison: A4I, protein stability index 2.54. Against it:
- T5A — the same, 2.54
- T5G — higher, 2.82
- T5D — higher, 3.06
- T5P — higher, 2.82
- T5Y — lower, 2
- T5V — higher, 3.09
- T5L — higher, 2.85
- T5F — lower, 2.27
- T5N — higher, 2.57
- T5C — lower, 2.17
- T5E — higher, 3.54
- T5S — higher, 3.03
- T5I — lower, 2.17
- T5W — lower, 1.83
- A4E — higher, 3
- A4D — higher, 3.15
- A4N — higher, 3.27
- A4V — lower, 2.49
- A4Q — higher, 2.57
- A4H — higher, 2.89
- A4C — higher, 3.31
- A4W — lower, 1.83
- A4Y — lower, 2.12
- A4R — higher, 2.97
- R6K — higher, 2.99
- R6C — lower, 1.89
- R6L — lower, 1.79
- R6W — lower, 1.96
- R6Q — higher, 2.82
- R6G — higher, 2.76
- R6P — higher, 3.15
- R6Y — lower, 1.76
- R6N — higher, 2.85
- R6T — lower, 2.32
- R6V — lower, 2.1
- R6S — higher, 2.7
- R6D — higher, 3.69
- L10A — higher, 3.09
- L10R — higher, 3.13
- L10F — higher, 3.02
- L10T — higher, 3.14
- L10C — higher, 2.84
- L10K — higher, 3.31
- L10H — higher, 3
- L10P — higher, 3.23
- L10E — higher, 3.53
- L10V — higher, 3.07
- L10M — higher, 2.86
- L10I — higher, 3.22
- L10G — higher, 2.99
- R7G — higher, 2.78
- R7H — higher, 2.69
- R7A — lower, 2.5
- R7E — higher, 3.66
- R7P — higher, 3.14
- R7W — lower, 1.78
- R7T — higher, 2.95
- R7V — lower, 2.39
- R7D — higher, 2.84
- R7K — lower, 2.48
- R7C — lower, 2.37
- N2D — higher, 3.14
- N2Q — lower, 2.51
- N2E — higher, 3.12
- N2G — higher, 2.7
- N2F — lower, 1.71
- N2V — lower, 1.87
- N2T — lower, 2.45
- N2R — lower, 2.5
- N2H — lower, 2.07
- N2Y — lower, 2.43
- N2M — lower, 1.85
- N2L — lower, 1.9
- N2C — lower, 2.18
- Y1I — lower, 2.48
- Y1E — higher, 3.55
- Y1K — higher, 3.52
- Y1Q — higher, 3.6
- Y1N — higher, 3.35
- Y1S — higher, 3.29
- Y1W — higher, 2.86
- Y1M — higher, 2.76
- Y1F — lower, 2.43
- Y1A — higher, 3.18
- Y1V — higher, 2.76
- Y1D — higher, 3.69
- K8W — lower, 1.94
- K8C — lower, 1.87
- K8G — higher, 3.37
- K8H — lower, 2.48
- K8L — lower, 1.99
- K8V — lower, 2.2
- K8R — higher, 2.85
- K8E — higher, 3.25
- K8F — lower, 2.27
- K8D — higher, 3.09
- K8I — lower, 2
- K11S — lower, 2.48
- K11L — lower, 2.43
- K11N — higher, 2.69
- K11F — lower, 1.95
- K11I — lower, 2.04
- K11E — higher, 3.48
- K11M — higher, 2.85
- I3N — higher, 3.29
- I3E — higher, 2.74
- I3Q — higher, 3.41
- I3H — higher, 2.69
- I3A — higher, 3.11
- I3S — higher, 3
- I3D — higher, 3.19
- I3R — higher, 2.71
- I3C — higher, 2.69
- I3G — higher, 2.97
- I3K — higher, 2.98
- I3P — higher, 3.14
- I3M — higher, 3.08
- I3F — higher, 2.85
- A9L — lower, 2.17
- A9S — higher, 2.93
- A9Y — lower, 2.09
- A9D — higher, 3.2
- A9E — higher, 2.99
- A9W — higher, 2.75
- A9Q — higher, 2.55
- A9V — higher, 2.55
- A9K — higher, 2.71
